Laboratory results taken from patent US20240392020A1 (JIANGSU HENGRUI PHARMACEUTICALS, published 2024).

T1: hP40 (human, UniProt P29460 23-328)
T1 construct: bought
T1 sequence (looked up): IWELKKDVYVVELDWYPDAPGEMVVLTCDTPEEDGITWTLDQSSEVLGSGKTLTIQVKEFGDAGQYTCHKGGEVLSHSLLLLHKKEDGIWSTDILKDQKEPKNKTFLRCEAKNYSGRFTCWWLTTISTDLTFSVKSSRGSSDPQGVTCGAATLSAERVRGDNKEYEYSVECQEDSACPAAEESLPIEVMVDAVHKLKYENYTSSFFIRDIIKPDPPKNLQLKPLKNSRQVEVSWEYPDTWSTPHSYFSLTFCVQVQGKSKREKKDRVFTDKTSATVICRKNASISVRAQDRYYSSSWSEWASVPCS

T2: CEA on MKN45 cells (UniProt P06731 35-685)
T2 construct: whole, on cells
T2 sequence (looked up): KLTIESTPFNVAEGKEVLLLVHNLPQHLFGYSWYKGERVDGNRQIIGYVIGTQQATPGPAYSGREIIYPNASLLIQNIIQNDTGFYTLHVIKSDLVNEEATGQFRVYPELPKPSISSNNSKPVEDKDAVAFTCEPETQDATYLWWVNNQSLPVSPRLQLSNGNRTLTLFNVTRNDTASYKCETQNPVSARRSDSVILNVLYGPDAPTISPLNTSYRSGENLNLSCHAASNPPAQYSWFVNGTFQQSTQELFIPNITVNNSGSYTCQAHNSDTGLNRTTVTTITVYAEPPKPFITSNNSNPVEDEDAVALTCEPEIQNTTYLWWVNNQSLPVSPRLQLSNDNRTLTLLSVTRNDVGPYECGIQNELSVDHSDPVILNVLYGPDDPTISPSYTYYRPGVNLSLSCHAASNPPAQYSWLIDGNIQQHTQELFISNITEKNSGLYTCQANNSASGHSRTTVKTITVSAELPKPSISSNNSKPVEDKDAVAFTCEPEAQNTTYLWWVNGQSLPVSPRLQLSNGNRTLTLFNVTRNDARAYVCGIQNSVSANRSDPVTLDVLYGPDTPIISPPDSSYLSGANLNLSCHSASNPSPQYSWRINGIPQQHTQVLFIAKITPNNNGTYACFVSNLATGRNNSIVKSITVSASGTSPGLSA


Molecular target: T1, hP40
Assay: ELISA
Protocol: For an antibody targeting a soluble protein, the binding activity of the antibody against the soluble protein was detected by ELISA. […] After the blocking was completed, the blocking solution was discarded; and the plate was washed 3 times with a PBST buffer (pH 7.4, PBS containing 0.1% tween-20). 100 μL of the antibody solution diluted in a gradient was added to each well, and the mixture was incubated at 37° C. for 1 h. After the incubation was completed, the plate was washed 3 times with PBST. […] The plate was washed 3 times with PBST. […] The reaction was stopped by adding 50 μL of 1 M H₂SO₄ to each well. The absorbance values at 450 nm were read on a microplate reader, the binding curves of the antibodies to an antigen were fitted with software, and the EC₅₀ values were calculated.

| Binder | EC50 [nM] |
| --- | --- |
| U3 (antibody) heavy: not shown light: DIQMTQSPSSLSASVGDRVTITCRASQGISSWLAWYQQKPEKAPKSLIYAASSLQSGVPSRFSGSGSGTDFTLTISSLQPEDFATYYCQQYNIYPYTFGQGTKLEIKSEAPRFLTRPLAFVVSEGKDATLSSQIVGDPPPEVTWEKDQQPITAGARFRLAQDGDVYRLEILDLQLSDSGQYVSRARNAIGEAFACVGLQVDAEG | 0.02 |
| U7 (antibody) heavy: not shown light: DIQMTQSPSSLSASVGDRVTITCRASQGISSWLAWYQQKPEKAPKSLIYAASSLQSGVPSRFSGSGSGTDFTLTISSLQPEDFATYYCQQYNIYPYTFGQGTKLEIKSGAPRFLTRPLAFVVSVGKDATLSSQIVGNPTPQVSWEKDQLPVTAGARFRLAQDGDLYRLKILDLTLSDSGQYVSRARNAIGEAFACVGLEVGAEA | 0.07 |
| U4 (antibody) heavy: not shown light: DIQMTQSPSSLSASVGDRVTITCRASQGISSWLAWYQQKPEKAPKSLIYAASSLQSGVPSRFSGSGSGTDFTLTISSLQPEDFATYYCQQYNIYPYTFGQGTKLEIKSGAPRFLTRPLAFVVSVGKDATLSSQIVGNPTPQVSWEKDKQPVTAGARFRLAQDGDLYRLKILDLQLSDSGQYVSRARNAIGEAFACLGLQVDAEA | 0.06 |
| U6 (antibody) heavy: not shown light: DIQMTQSPSSLSASVGDRVTITCRASQGISSWLAWYQQKPEKAPKSLIYAASSLQSGVPSRFSGSGSGTDFTLTISSLQPEDFATYYCQQYNIYPYTFGQGTKLEIKSGAPRFLTRPLAFVVSVGKDATLSSQIVGNPTPQVSWEKDQLPVTAGARFRLAQDGDLYRLKILDLTLSDSGQYVSRARNAIGEAFACVGLEVGAEA | 0.11 |
| U5 (antibody) heavy: not shown light: DIQMTQSPSSLSASVGDRVTITCRASQGISSWLAWYQQKPEKAPKSLIYAASSLQSGVPSRFSGSGSGTDFTLTISSLQPEDFATYYCQQYNIYPYTFGQGTKLEIKSGAPRFLTRPLAFVVSVGKDATLSSQIVGNPTPQVSWEKDQLPVTAGARFRLAQDGDLYRLKILDLTLSDSGQYVSRARNAIGEAFACVGLEVGAEA | 0.11 |
| U1 (antibody) heavy: not shown light: DIQMTQSPSSLSASVGDRVTITCRASQGISSWLAWYQQKPEKAPKSLIYAASSLQSGVPSRFSGSGSGTDFTLTISSLQPEDFATYYCQQYNIYPYTFGQGTKLEIKSGAPRFLTRPLAFVVSVGKDATLSSQIVGNPTPQVSWEKDQQPVAAGARFRLAQDGDLYRLKILDLALGDSGQYVSRARNAIGEAFACVGLQVDAEA | 0.03 |
| U8 (antibody) heavy: not shown light: DIQMTQSPSSLSASVGDRVTITCRASQGISSWLAWYQQKPEKAPKSLIYAASSLQSGVPSRFSGSGSGTDFTLTISSLQPEDFATYYCQQYNIYPYTFGQGTKLEIKSGAPRFLTRPLSYVVSVGKDASLSSQIVGNPTPQVSWEKDQLPVTAGARFRLAQDGDLYRLKILDLQLSDSGQYVSRARNAIGEAFACVGLEVGAEA | 0.16 |
| U2 (antibody) heavy: not shown light: DIQMTQSPSSLSASVGDRVTITCRASQGISSWLAWYQQKPEKAPKSLIYAASSLQSGVPSRFSGSGSGTDFTLTISSLQPEDFATYYCQQYNIYPYTFGQGTKLEIKSGAPRFLTRPKSYTVSVGKDASLSSQIVGNPTPQVSWEKDQQPVAAGARFRLAQDGDLYRLKILDLALGDSGQYVSRARNAIGEAFACVGLQVDAEA | 0.07 |

Molecular target: T2, CEA on MKN45 cells
Assay: FACS, MKN45 cells

| Binder | EC50 [nM] |
| --- | --- |
| N1 (antibody) heavy: not shown light: EIVLTQSPGTLSLSPGERATLSCRASQNINNRFLAWYQQRPGQAPRLLIYAASSRATGVPDRFSGSGSGTDFTLTISRLEAEDFAMYHCQQYGSFPRTFGQGTMVDIKGILQPDPPANITVTAVARNPRWLSVTWQDPHSWNSSFYRLRFELRYRAERSKTFTTWMVKDLQHHCVIHDAWSGLRHVVQLRAQEEFGQGEWSEWSPEAMGTPW | 1230 |
| N2 (antibody) heavy: not shown light: EIVLTQSPGTLSLSPGERATLSCRASQNINNRFLAWYQQRPGQAPRLLIYAASSRATGVPDRFSGSGSGTDFTLTISRLEAEDFAMYHCQQYGSFPRTFGQGTMVDIKFDPVYKVKPNPPHNLSVINSEELSSILKLTWTNPSIKSVIILKYNIQYRTKDASTWSQIPPEDTASTRSSFTVQDLKPFTEYVFRIRCMKEDGKGYWSDWSEEASGIT | 766 |
| C1 (antibody) heavy: not shown light: DIVMTQSPDSLAVSLGERATINCRASESVSIIGTNLIHWYQQKPGQPPKLLIYHASNLETGVPDRFSGSGSGTDFTLTISSLQAEDVAVYYCLQSRKIPYTFGGGTKVEIKGIPPKIEALPSDISIDEGKVLTVACAFTGEPTPEVTWSCGGRKIHSQEQGRFHIENTDDLTTLIIMDVQKQDGGLYTLSLGNEFGSDSATVNIHIRSI | 17.7 |
| C2 (antibody) heavy: not shown light: DIVMTQSPDSLAVSLGERATINCRASESVSIIGTNLIHWYQQKPGQPPKLLIYHASNLETGVPDRFSGSGSGTDFTLTISSLQAEDVAVYYCLQSRKIPYTFGGGTKVEIKGIPPKIEALPSDISIDEGKVLTVACAFTGEPTPEVTWSCGGRKIHSQEQGRFHIENTDDLTTLIIMDVQKQDGGLYTLSLGNEFGSDSATVNIHIRSI | 16.5 |
| N5 (antibody) heavy: not shown light: EIVLTQSPGTLSLSPGERATLSCRASQNINNRFLAWYQQRPGQAPRLLIYAASSRATGVPDRFSGSGSGTDFTLTISRLEAEDFAMYHCQQYGSFPRTFGQGTMVDIKGIPPKIEALPSDISIDEGKVLTVACAFTGEPTPEVTWSCGGRKIHSQEQGRFHIENTDDLTTLIIMDVQKQDGGLYTLSLGNEFGSDSATVNIHIRSI | 5.24 |
| C0 (antibody, human IgG1, kappa) heavy: not shown light: DIVMTQSPDSLAVSLGERATINCRASESVSIIGTNLIHWYQQKPGQPPKLLIYHASNLETGVPDRFSGSGSGTDFTLTISSLQAEDVAVYYCLQSRKIPYTFGGGTKVEIKRTVAAPSVFIFPPSDEQLKSGTASVVCLLNNFYPREAKVQWKVDNALQSGNSQESVTEQDSKDSTYSLSSTLTLSKADYEKHKVYACEVTHQGLSSPVTKSFNRGEC | 5.81 |
